The source of these data is patent publication US20240166767A1 (SCIRHOM, published 2024).

The chains are these.
T1: human iRhom1 full length wild type C-terminally tagged with 3 consecutive copies of the T7 epitope (human, UniProt Q96CC6 1-855)
T1 construct: also called hiR1-FL-WT-T7; human iRhom1 variant
T1 sequence: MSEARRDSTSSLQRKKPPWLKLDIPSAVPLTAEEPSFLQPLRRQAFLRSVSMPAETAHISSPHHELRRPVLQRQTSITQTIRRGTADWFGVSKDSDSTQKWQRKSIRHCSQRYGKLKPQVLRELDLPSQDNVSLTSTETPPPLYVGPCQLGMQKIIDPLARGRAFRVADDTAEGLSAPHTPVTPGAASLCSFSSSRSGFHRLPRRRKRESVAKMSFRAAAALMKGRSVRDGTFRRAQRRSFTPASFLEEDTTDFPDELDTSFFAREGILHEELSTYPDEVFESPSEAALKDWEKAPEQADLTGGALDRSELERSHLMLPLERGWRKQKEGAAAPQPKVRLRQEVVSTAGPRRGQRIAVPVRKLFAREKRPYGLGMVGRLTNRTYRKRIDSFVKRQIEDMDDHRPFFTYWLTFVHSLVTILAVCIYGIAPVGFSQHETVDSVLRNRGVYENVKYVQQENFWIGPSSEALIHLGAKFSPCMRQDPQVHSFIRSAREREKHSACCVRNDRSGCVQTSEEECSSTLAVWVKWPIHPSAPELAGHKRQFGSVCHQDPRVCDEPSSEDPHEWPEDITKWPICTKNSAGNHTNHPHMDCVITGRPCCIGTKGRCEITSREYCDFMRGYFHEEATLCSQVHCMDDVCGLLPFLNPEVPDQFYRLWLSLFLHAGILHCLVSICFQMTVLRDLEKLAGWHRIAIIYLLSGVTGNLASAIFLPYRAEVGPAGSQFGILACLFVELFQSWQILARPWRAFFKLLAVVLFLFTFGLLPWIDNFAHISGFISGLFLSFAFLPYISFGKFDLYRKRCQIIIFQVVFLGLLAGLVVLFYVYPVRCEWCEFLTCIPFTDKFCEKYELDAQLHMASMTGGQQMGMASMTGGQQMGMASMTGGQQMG

B1: humanized antibody 16-B-07 (antibody, V domains shown)
VH: QVTLRESGPALVKPTQTLTLTCTFSGFSLSTFALGVGWIRQPPGKALEWLAHIWWDEDKYYNPALKSRLTISKDTSKNQVVLTITNMDPVDTATYYCARITTYYYGMDYWGQGTLVTVSS
VL: EIVMTQSPDFQSVTPKEKVTITCRASQSIGNHLHWYQQKPDASPKLLIKYASQSISGVPSRFSGSGSGTDFTLTINSLEAEDAATYFCQQSYQWPLTFGQGTKLEIK
notes: Tested as whole humanized antibody produced in CHO cells and detected with anti-human IgG; the general methods speak of human IgG1/Kappa; also called clone 16-B-07
B2: humanized antibody 16-B-05 (antibody, V domains shown)
VH: QVTLRESGPALVKPTQTLTLTCTFSGFSLSTFALGVGWIRQPPGKALEWLAHIWWDEDKYYNPALKSRLTISKDTSKNQVVLTITNMDPVDTATYYCARITTYYYGMDYWGQGTLVTVSS
VL: EIVMTQSPDFQSVTPKEKVTITCRASQSIGNHLHWYQQKPDASPKLLIKYASQSISGVPSRFSGSGSGTDFTLTINSLEAEDAATYFCQQSYNWPLTFGQGTKLEIK
notes: Tested as whole humanized antibody produced in CHO cells and detected with anti-human IgG; the general methods speak of human IgG1/Kappa; The printed LCVD reads SRESGSG where the printed cDNA encodes SRFSGSG; also called clone 16-B-05
B3: humanized antibody 16-B-03 (antibody, V domains shown)
VH: QVTLRESGPALVKPTQTLTLTCTFSGFSLSTFALGVGWIRQPPGKALEWLAHIWWDDDKYYNPALKSRLTISKDTSKNQVVLTITNMDPVDTATYYCARITTYYYGMDYWGQGTLVTVSS
VL: EIVMTQSPDFQSVTPKEKVTITCRASQSIGNHLHWYQQKPDASPKLLIKYASQSISGVPSRFSGSGSGTDFTLTINSLEAEDAATYFCQQSYQWPLTFGQGTKLEIK
notes: Tested as whole humanized antibody produced in CHO cells and detected with anti-human IgG; the general methods speak of human IgG1/Kappa; also called clone 16-B-03
B4: humanized antibody 42-B-04 (antibody, V domains shown)
VH: QVTLRESGPALVKPTQTLTLTCTFSGFSLSTFGRGVGWIRQPPGKALEWLAHIWWDDEKYYNSALKSRLTISKDTSKNQVVLTITNMDPVDTATYYCARIQNYGSNYWYFDVWGQGTLVTVSS
VL: AIQLTQSPSSLSASVGDRVTITCRASSRISYMFWYQQKPGKAPKVLIYDTSNLASGVPSRFSGSGSGTDYTLTISSLQPEDFATYYCQQWNAYPLTFGQGTKLEIK
notes: Tested as whole humanized antibody produced in CHO cells and detected with anti-human IgG; the general methods speak of human IgG1/Kappa; also called clone 42-B-04
B5: humanized antibody 42-B-02 (antibody, V domains shown)
VH: QVTLRESGPALVKPTQTLTLTCTFSGFSLSTFGRGVGWIRQPPGKALEWLAHIWWDDEKYYNSALKSRLTISKDTSKNQVVLTITNMDPVDTATYYCARIQNYGSNYWYFDVWGQGTLVTVSS
VL: AIQLTQSPSSLSASVGDRVTITCRASSRISYMFWYQQKPGKAPKVLIYDTSNLASGVPSRFSGSGSGTDYTLTISSLQPEDFATYYCQQWNSYPLTFGQGTKLEIK
notes: Tested as whole humanized antibody from transient expression of heavy chain/kappa light chain pairs in CHO cells, detected with anti-human IgG; the general methods speak of human IgG1/Kappa; also called clone 42-B-02
B6: humanized antibody 23-B-04 (antibody, V domains shown)
VH: QVTLRESGPALVKPTQTLTLTCTFSGFSLSTFGMGVGWIRQPPGKALEWLAHIWWDDEKYYNSALKSRLTISKDTSKNQVVLTITNMDPVDTATYYCARISNYGSNYWYFNVWGQGTLVTVSS
VL: AIQLTQSPSSLSASVGDRVTITCRASSSVSYMYWYQQKPGKAPKVLIYDTSNLASGVPSRFSGSGSGTDYTLTISSLQPEDFATYYCQQWNAYPLTFGQGTKLEIK
notes: Tested as whole humanized antibody produced in CHO cells and detected with anti-human IgG; the general methods speak of human IgG1/Kappa; also called clone 23-B-04

This assay has as its target T1, human iRhom1 full length wild type …. In words: FACS on MEF-DKO-hiR1-FL-WT-T7 cells. How it is done: In brief, in addition to immortalized MEF-DKO-EV control cells and MEF-DKO-hiR2-FL-WT-T7 cells (as already described in example 3), MEF-DKO-hiR1-FL-WT-T7 cells were harvested with 10 mM EDTA in PBS, washed and resuspended in FACS buffer (PBS, 3% FBS, 0.05% sodium azide), and seeded in Nunc U-bottom 96-well plates (Thermo Fisher Scientific, USA) at approximately 3×10⁵ cells per well. To pellet cells and remove supernatants, the plates were centrifuged at 1,500 rpm and 4° C. for 3 minutes. For primary staining, cells were resuspended in 100 μl per well of either FACS buffer alone (controls), mouse monoclonal anti-T7 IgG (Merck Millipore, USA) at 3 μg/ml FACS buffer or the humanized antibodies 16-B-03, 16-B-05, 16-B-07, 23-B-04, 42-B-02, 42-B-04 of the invention also at 3 μg/ml FACS buffer and incubated on ice for 1 hour. Afterwards, plates were centrifuged at 1,500 rpm and 4° C. for 3 minutes and washed twice with 200 μl per well of FACS buffer. For secondary staining of previous anti T7 staining, cells were spun down and resuspended in 100 μl per well of PE-conjugated goat anti-mouse IgG F(ab′)2 detection fragment (Dianova, Germany) diluted 1:100 in FACS buffer. For secondary staining of previous staining with humanized antibodies of invention, cells were spun down and resuspended in 100 μl per well of PE-conjugated goat anti-human IgG F(ab′)2 detection fragment (Dianova, Germany) diluted 1:100 in FACS buffer. Protected from light, the cell suspensions were incubated on ice for 1 hour. Plates were then centrifuged at 1,500 rpm and 4° C. for 3 minutes and washed three times with 200 μl per well of FACS buffer. Finally, cells were resuspended in 150 μl per well of FACS buffer and analyzed using a BD Accuri™ C6 Plus flow cytometer (Becton Dickinson, Germany).
B1: the binding result is “no binding (tested: 3 µg/ml)”. For B2 the value was “no binding (tested: 3 µg/ml)”; for B3, “no binding (tested: 3 µg/ml)”; for B4, “no binding (tested: 3 µg/ml)”. Regarding B5, the binding result is recorded as “no binding (tested: 3 µg/ml)”. For B6 the value was “no binding (tested: 3 µg/ml)”.
